The term Kd denotes a measure of binding affinity in units of concentration. Read a low Kd as a tighter complex. Broadly, the stoichiometry N is a count of units in the complex or per binding partner.

Sequences and labels used below:
B1: ScPolη: Saccharomyces cerevisiae DNA polymerase eta (protein)
chain: MSKFTWKELIQLGSPSKAYESSLACIAHIDMNAFFAQVEQMRCGLSKEDPVVCVQWNSIIAVSYAARKYGISRMDTIQEALKKCSNLIPIHTAVFKKGEDFWQYHDGCGSWVQDPAKQISVEDHKVSLEPYRRESRKALKIFKSACDLVERASIDEVFLDLGRICFNMLMFDNEYELTGDLKLKDALSNIREAFIGGNYDINSHLPLIPEKIKSLKFEGDVFNPEGRDLITDWDDVILALGSQVCKGIRDSIKDILGYTTSCGLSSTKNVCKLASNYKKPDAQTIVKNDCLLDFLDCGKFEITSFWTLGGVLGKELIDVLDLPHENSIKHIRETWPDNAGQLKEFLDAKVKQSDYDRSTSNIDPLKTADLAEKLFKLSRGRYGLPLSSRPVVKSMMSNKNLRGKSCNSIVDCISWLEVFCAELTSRIQDLEQEYNKIVIPRTVSISLKTKSYEVYRKSGPVAYKGINFQSHELLKVGIKFVTDLDIKGKNKSYYPLTKLSMTITNFDIIDLQKTVVDMFGNQVHTFKSSAGKEDEEKTTSSKADEKTPKLECCKYQVTFTDQKALQEHADYHLALKLSEGLNGAEESSKNLSFGEKRLLFSRKRPNSQHTATPQKKQVTSSKNILSFFTRKK
modifications: left off: GST, N-terminal, state not stated
notes: Saccharomyces cerevisiae DNA polymerase eta
B2: ScPCNA (natural protein, Saccharomyces cerevisiae, UniProt P15873 1-258, looked up)
chain: MLEAKFEEASLFKRIIDGFKDCVQLVNFQCKEDGIIAQAVDDSRVLLVSLEIGVEAFQEYRCDHPVTLGMDLTSLSKILRCGNNTDTLTLIADNTPDSIILLFEDTKKDRIAEYSLKLMDIDADFLKIEELQYDSTLSLPSSEFSKIVRDLSQLSDSINIMITKETIKFVADGDIGSGSVIIKPFVDMEHPETSIKLEMDQPVDLTFGAKYLLDIIKGSSLSDRVGIRLSSEAPALFQFDLKSGFLQFFLAPKFNDEE
notes: proliferating cell nuclear antigen (PCNA), Saccharomyces cerevisiae; also called S. cerevisiae PCNA; source: E. coli BL21-DE3, purified
B3: CaPCNA (natural protein, Candida albicans, UniProt Q5AMN0 1-259, looked up)
chain: MLEGKFEEAALLKKVVEAIKDCVKKCNFNCSEHGITVQAVDDSRVLLVSLLIGQTSFSEYRCDRDVTLGIDLESFSKIIKSANNEDFLTLLAEDSPDQIMAILEEKQKEKISEYSLKLMDIDSEFLQIDDMEYDAVVNMPSSDFAKLVRDLKNLSESLRVVVTKDSVKFTSEGDSGSGSVILKPYTNLKNERESVTISLDDPVDLTFGLKYLNDIVKAATLSDVITIKLADKTPALFEFKMQSGGYLRFYLAPKFDDDE
notes: proliferating cell nuclear antigen (PCNA), Candida albicans; also called C. albicans PCNA; source: E. coli BL21-DE3, purified
B4: 29-mer ubz peptide of CaPolη (607-635) (peptide)
peptide: KTKKCSRCKLSVDDPVEHNDYHIAMDLSN
notes: also called wild-type ubz peptide; WT UBZ peptide; source: synthetic peptide (China peptides Co Ltd, 98% purity)
B5: CaPCNA-90 (P253A, K254A) (natural protein)
chain: B3 chain with P253A, K254A
notes: source: E. coli BL21-DE3, purified

In series [1] the test system is CaPCNA. Kind of series: ITC binding to CaPCNA. Further details: species or system Candida albicans. Conditions: 25 °C, pH 7.4, CaPCNA injected, about 10 μM Polη mutant in cell, negatives repeated at various concentrations.
Excerpt: To identify a region of CaPolη involved in PCNA interaction, we generated a deletion construct by inserting a stop codon at amino acid position 513 (K513) of CaPolη. […] The wild-type and truncated CaPolη were purified, and their interaction with CaPCNA was monitored by isothermal calorimetry (ITC) analysis. […] Since CaPolη functionally complements ScPolη and protects the fungal cells from UV-induced DNA damages ([17], [25], [26]), to further strengthen our finding, various Polη orfs were expressed under the constitutive ADH1 promoter in rad30Δ and rad30Δrev3Δ S. cerevisiae strains, and susceptibility to UV irradiation was determined.
To map the precise location of PCNA binding, another deletant CaPolη 1 to 601 aa was constructed that lacks the last 39 residues encompassing the ubz domain but retains Seq-3 and Seq-4 (Fig. 2A). […] To ascertain the function of ubz domain, two D626A and H624A, H628A of CaPolη mutants were generated and their ability to suppress UV sensitivity of Polη-deficient S. cerevisiae strains was examined. […] Similarly, UV-induced mutation rate was estimated by counting the number of canavanine-resistant colonies of various S. cerevisiae strains harboring CaPolη constructs. […] Subsequently, ITC and GST-pull-down assays were carried out to determine the role of ubz in PCNA binding.
In series [2] the target is T1, ScPCNA (Saccharomyces cerevisiae, UniProt P15873).
T1 construct: made in house; host or cells: E. coli BL21-DE3
T1 sequence (P15873 1-258): B2 chain
Kind of series: ITC binding to ScPCNA. Conditions: 25 °C. The text has this: To understand whether any sequence or structural differences of the ubz domains in these Polηs have an impact on functional differences, we used the solution structure of the ubz domain of human Polη as a template and determined the structure of the ubz domain of both Sc- and Ca-Polηs by computational modeling (Fig. 3A). […] The two cysteines are located on the fingertip made by the two β-strands, and the two histidines are located on the α-helix. […] Next we examined whether the ubz peptide can inhibit the binding of PCNA to Polη. An equimolar mixture of the ubz peptide and PCNA was injected into the calorimetric cell having CaPolη to examine the interference of peptide on the interaction between PCNA and Polη by ITC.
All the purified proteins and purchased peptides were dialyzed overnight against 1 l of a buffer containing 20 mM HEPES (pH 7.4) and 150 mM NaCl at 4 °C to ensure complete removal of DTT and glycerol from the protein storage buffer, which could affect the heat exchange while they interact. ITC assays were performed using a Malvern MicroCal PEAQ-ITC calorimeter. Before the experiment, the cell and the syringe were thoroughly washed with water, followed by cell rinsing with a buffer. A control run was carried out to make sure that the buffer is not participating in heat change where the cell was filled with 300 μl of a buffer and concentrated CaPCNA or ScPCNA protein (200 μM) in the syringe. ITC was performed using various Polηs or UBZ peptide or UBZ mutant peptide in the sample cell and CaPCNA or ScPCNA or a mixture of CaPCNA+ WT UBZ peptide in the syringe. Twenty-five injections of 1.5 μl of protein from the syringe were given at intervals of 120 s with an initial delay of 120 s at 25 °C. The data were analyzed to determine the various kinetic parameters using a single-site binding model provided in the ITC analysis software package.

The target of series [3] is B4. Kind of series: ITC; PCNA (200 μM, counted as a trimer) in the syringe, Polη (10 μM) or ubz peptide (20 μM) in the cell; 25 injections of 1.5 μl; 25 °C; 20 mM HEPES pH 7.4, 150 mM NaCl; single-site binding model. Conditions: both partners purified.
Another series deals with T2, ScPolη (Saccharomyces cerevisiae, UniProt Q04049 1-632).
T2 construct: DNA polymerase eta (Rad30), Saccharomyces cerevisiae, 632 aa, wild type; also called ScRad30; S. cerevisiae DNA polymerase eta; source: purified
T2 sequence (looked up): B1 chain
The series is described as above. Conditions: both partners purified.

The target in series [4] is wild-type CaPolη protein (1–640 aa) (Candida albicans). The description is as above.
Series [5] concerns the molecule itself. Kind of series: SEC; about 10 μg of purified CaPCNA and CaPolη (1:1 M ratio) incubated 60 min at room temperature, or CaPCNA alone; Superdex 200 PC3.2/30; 50 mM HEPES pH 7.5, 150 mM NaCl, 10% glycerol; 0.05 ml/min, 4 °C. Background: In gel filtration, larger molecules generally elute earlier.
For the series “CaPCNA-90 (P253A, K254A)”, the target named is B5. The series can be described thus: ITC; PCNA (200 μM, counted as a trimer) in the syringe, Polη (10 μM) or ubz peptide (20 μM) in the cell; 25 injections of 1.5 μl; 25 °C; 20 mM HEPES pH 7.4, 150 mM NaCl; single-site binding model. The settings on record: both partners purified. (ITC needs no label: the signal is the heat of the interaction.)

In series [6] the target is B2. Described as above. Conditions: both partners purified.
In series [7] the target is B3. The description is as above. Conditions: both partners purified.

Residue numbers refer to the chain shown, from its start. Names and notes keep the numbering of the source.

For the molecule “607-KTKKCSRCKLSVDDPVEANDYAIAMDLSN-635 [mutant peptide]”, the “Binding to CaPCNA by ITC (in words)” value in the series on CaPCNA [1] is listed as “did not show any sign of binding”.
Turning to B1, the Kd with ScPCNA [2] (20 mM HEPES pH 7.4, 150 mM NaCl, syringe ScPCNA 200 μM, cell 10 μM ScPolη or 20 μM ubz peptide, single-site model, repeated twice) amounted to 15.1 µM. The molecule also registered a Stoichiometry with ScPCNA [2] (pH 7.4, ScPCNA 200 μM in syringe) of 0.31. In the series with ScPCNA [2] (pH 7.4, ScPCNA, unit not given), the ΔG is recorded as −6.58, the ΔH was −79.9 and the “−TΔS” value came out at 73.3.
With B2, in series [3], the dH was -101 kJ/mol and the “stoichiometry N” value came out at 0.34. Further, in the series with ScPolη, the Kd came out at 15.1 µM, the dH is -334 kJ/mol and the “stoichiometry N” value is 0.31.
Consider B3, for which the Kd in series [4] stood at 7.15 µM. In addition, the dH in [4] is -92.5 kJ/mol; in series [3] it was -335 kJ/mol. The stoichiometry N was 0.315 in series [4], 0.355 in series [3] and 3 in series [5].
B4: the Kd is 39 µM with CaPCNA-90 (P253A, K254A); 15.6 µM with ScPCNA [6]; 19.8 µM in the series with CaPCNA [7].
With B5, in [3], the dH is -334 kJ/mol and the “stoichiometry N” value turned out to be 0.316.

(Values after paper PMC8784325, “The ubiquitin-binding domain of DNA polymerase η directly binds to DNA clamp PCNA and regulates translesion DNA synthesis” (The Journal of Biological Chemistry, 2021).)
